Measured values reported in patent US20140208457, “Nuclease Fusion Protein and Uses Thereof” (BASF PLANT SCIENCE COMPANY GMBH, published 2014).

B1: S6P6S tripartite site I-SceI-PvuII-I-SceI (dsDNA)
DNA 1: TAGGGATAACAGGGTAATGGTACTCAGCTGATTCATATTACCCTGTTATCCCTA
DNA 2: TAGGGATAACAGGGTAATATGAATCAGCTGAGTACCATTACCCTGTTATCCCTA
B2: S, I-SceI site only (dsDNA)
DNA 1: TAGGGATAACAGGGTAAT
DNA 2: ATTACCCTGTTATCCCTA

Target: T1, P(T46G,Y94F)-L(6)-Ss* PvuII/I-SceI fusion protein (artificial (Proteus vulgaris PvuII; …)
T1 chain: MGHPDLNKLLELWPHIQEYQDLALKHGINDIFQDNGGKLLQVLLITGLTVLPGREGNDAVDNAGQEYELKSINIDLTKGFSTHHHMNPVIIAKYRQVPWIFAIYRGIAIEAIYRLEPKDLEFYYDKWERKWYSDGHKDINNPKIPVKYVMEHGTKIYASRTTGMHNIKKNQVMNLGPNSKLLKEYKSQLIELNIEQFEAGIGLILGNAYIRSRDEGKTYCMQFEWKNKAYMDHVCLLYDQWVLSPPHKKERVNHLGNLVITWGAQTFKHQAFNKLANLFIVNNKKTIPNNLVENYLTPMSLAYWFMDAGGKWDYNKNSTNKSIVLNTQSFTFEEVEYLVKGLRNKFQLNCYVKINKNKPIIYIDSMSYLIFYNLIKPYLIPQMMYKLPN
Test: EMSA; 1-150 nM enzyme, 2 nM DNA, KG buffer without Mg, room temperature
Conditions: tags: C-terminal Strep-tag (vector pASK-IBA63b-plus), chain copies: 2 (inferred, PvuII homodimer)
Experimental: For the determination of binding constants of the fusion enzymes, EMSAs with radioactive labeled PCR-fragments were done. The shift fragments were created via PCR using [α³²P] dATP. One fragment contained the addressed site (S6P6S; A), just an I-SceI site (S; B) or just a PvuII site (P; C). 2 nM of the radiolabeled substrate were incubated with fusion enzyme at concentrations ranging from 1-150 nM in optimized KG Buffer without magnesium for 30 min at room temperature. After adding 1 μl 87% glycerol the samples were loaded onto a 6% polyacrylamid Tris-Acetate (pH 8.5) gel and run for 2 h at 10V/cm. The bands were visualized using the InstantImager system (Packard).

Row | Binder | binding result (label: 32P (EMSA PCR fragment)) | binding result (label: 32P (PCR fragment))
1 | B1 | binds | –
2 | B2 | – | no binding
